# From patent publication US9259432B1, “Composition and methods for targeted delivery of a therapeutic compound to the brain or spinal cord of a subject for treatment of neurodegenerative diseases” (Parminder J. S. Vig, priority 2011, dated 2016)
# Columns and labels:
# [1] = IgG levels in plasma by ELISA; format: in vivo, mice; settings: 100 mg/kg, treated multiple times, no heat; samples diluted 1:50,000
# Description: IgG levels in plasma of mice treated withof SynB1-ELP-GGC (100 mg/kg) and SynB1-ELP-TRTK (100 mg/kg) were obtained. Mice were treated multiple times without induction of hyperthermia. IgG levels were measured using ELISA. Samples were diluted 1:50,000 and compared against a standard curve generated using a mouse IgG standard.
# [2] = biological target: T1, S100B (Homo sapiens, UniProt P04271); test: Tryptophan fluorescence quenching binding studies
# T1 construct: purchased Sigma-Aldrich
# T1 sequence (P04271 2-92 limits assumed): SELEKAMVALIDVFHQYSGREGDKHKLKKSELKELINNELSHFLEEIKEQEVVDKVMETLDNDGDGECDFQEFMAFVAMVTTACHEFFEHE
# Description: The tryptophan fluorescence of 5.0 μM Synb1-ELP-TRTK, 5.0 μM Synb1-ELP-GGC and 5.0 μM TRTK12 were measured using an Aminco Bowman Series 2 fluorescent spectrophotometer with and Excitation wavelength of 295 nm and an Emission wavelength of 350 nm in 25 mM TrisHCL and 0.1 mM CaCl2 at 12° C. (to avoid aggregation of ELP) or in a solution of containing 25 mM TrisHCL, 0.1 mM CaCl2 and 1 mM EGTA at 12° C. S100B was titrated from 100 nM up to 3.0 μM into the various peptide solutions and changes in tryptophan fluorescence were recorded into an Excel file and graphs produced. A Fluorescence % was plotted against free S100B concentration using GraphPad Prism software. A Fluorescence % was calculated as follows: [(Maximum fluorescence−Observed fluorescence)/(Maximum fluorescence−Minimum Fluorescence)]×100%. Where the maximum fluorescence is the fluorescence of 5.0 μM Synb1-ELP-TRTK or 5.0 μM TRTK12 before titration of S100B and the minimum fluorescence is the fluorescence of 5.0 μM Synb1-ELP-TRTK or 5.0 μM TRTK12 fully saturated with bound S100B. […]
# Alterations in the binding affinity of a peptide due to its fusion to ELP have never been studied previously. […] Fluorescent spectroscopy is a sensitive tool used to monitor changes in the local environment of tryptophan residues that occur during a protein-ligand binding event; furthermore, changes in tryptophan fluorescence can be used to calculate binding affinity (Weljie and Vogel, 2000, Bocedi et al., 2004). Previous work has shown that S100B binding reduces tryptophan fluorescence of TRTK12 and like peptides (Ivanenkov et al., 1995). The tryptophan fluorescence of 5.0 μM Synb1-ELP-TRTK and 5.0 μM Synb1-ELP-GGC were measured using a fluorescent spectrophotometer with an Excitation wavelength of 295 nm and an Emission wavelength of 350 nm in 25 mM TrisHCL and 0.1 mM CaCl2 at 12° C. At 295 nm, tryptophan emission spectrum is dominant over the weaker tyrosine and phenylalanine fluorescence (Vivian and Callis, 2001). […] W755 has very little fluorescence at 350 nm which may be due to the 150 neighboring VPGXG repeats of ELP (FIG. 12A). […]
# [3] = system: SCA1/+ mice; test: Bar cross test; format: in vivo; settings: IP, 10 doses every other day for 3 wks, with and without heat
# Description: A minimum of five 2 wks old SCA1/+mice were treated IP with vehicle (saline), ELP-GGC or ELP-TRTK peptides multiple times (total 10 doses) every other day for 3 wks. Some animals were subjected to hyperthermia. After completion of the treatments, animals were subjected to behavioral tests.
# Bar cross test. The bar-crossing apparatus for testing balance and fine motor coordination consisted of a horizontal U-shaped platform made of wood supported on 30 cm legs. The two parallel 30-cm-long bars of the U were wide enough (18 mm) for the mice to walk easily, whereas the piece connecting them, the challenge bar, was also 30 cm long but only 2 mm wide. Animals were placed on one of the wide bars and allowed to move about on the apparatus for 5 min. After the spontaneous activity portion of the bar cross test, animal were subjected to a forced task. In this task, the mice were placed in the middle of the challenge bar in order to force a crossing attempt. A maximum of 120 sec was allowed for mice to stay on the bar, and the latency to fall (on a padded surface; height=30 cm) or cross (Cross) successfully was measured in seconds. The surface of the apparatus was cleaned with mild soap solution and air-dried between mice. […]
substance,measurement,setting,value
"Synb1-ELP-TRTK: thermally responsive S100B inhibitory polypeptide: Synb1 cell penetrating peptide, elastin-like polypeptide (ELP) and TRTK12 peptide fused","IgG level in plasma, OD Value",[1],0.2552
same,impact on S100B binding affinity compared to the TRTK12 peptide alone,[2],2 fold
same,Kd,"[2]; 5.0 μM peptide, 25 mM TrisHCL, 0.1 mM CaCl2, 12° C.",518 ± 80 nM
same,effect of S100B titration on tryptophan fluorescence at 350 nm with calcium depleted,"[2]; 25 mM TrisHCL, 0.1 mM CaCl2 and 1 mM EGTA",no effect
same,"hyperactivity, slip frequency, Sniff Up and down frequency",[3],suppresses these activities
